The values below come from paper PMC5503512, “The complex of TRIP-Br1 and XIAP ubiquitinates and degrades multiple adenylyl cyclase isoforms” (eLife, 2017).

Assay [1] deals with T1, FLAG-His-tagged AC1-M (AC1 amino acids 236-612) (bovine, UniProt P19754 236-612).
T1 construct: Ends of the tags as in the printed name His-AC1-M-FLAG; also called His-AC1-M-FLAG; M, cytosolic region between the 2 transmembrane domains; not shown: His, N-terminal, kept; FLAG, C-terminal, kept
As to the kind of experiment: pull-down; pairwise pull-down, two purified proteins from E. coli, 5 μg of each, FLAG-His-tagged AC1 fragment held on anti-FLAG M2 affinity gel, Co-IP buffer, 500 μL, 2 hr at 4°C; washed with PBS containing 1% Triton X-100; western blot. The conditions noted are these: both partners purified.

The target in assay [2] is T2, His-XIAP purified from E. coli (human, UniProt P98170 1-497).
T2 construct: also called purified XIAP; source: E. coli BL21, purified (Ni-NTA, with 200 μM zinc sulfate)
T2 sequence (P98170 whole entry): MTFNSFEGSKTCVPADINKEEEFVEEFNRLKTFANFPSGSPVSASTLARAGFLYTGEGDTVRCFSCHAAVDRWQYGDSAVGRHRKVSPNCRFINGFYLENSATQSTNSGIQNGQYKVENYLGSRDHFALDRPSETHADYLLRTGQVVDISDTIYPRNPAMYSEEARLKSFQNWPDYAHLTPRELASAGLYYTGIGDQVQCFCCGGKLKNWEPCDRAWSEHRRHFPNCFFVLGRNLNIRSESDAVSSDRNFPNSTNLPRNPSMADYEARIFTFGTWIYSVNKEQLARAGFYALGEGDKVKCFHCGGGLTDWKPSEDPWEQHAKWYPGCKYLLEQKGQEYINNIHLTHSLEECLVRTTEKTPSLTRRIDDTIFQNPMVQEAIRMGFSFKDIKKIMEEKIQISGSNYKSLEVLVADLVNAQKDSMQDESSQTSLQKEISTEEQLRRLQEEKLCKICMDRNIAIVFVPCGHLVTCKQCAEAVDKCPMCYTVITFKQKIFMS
In words: pull-down; GST, GST-TRIP-Br1 or GST-TRIP-Br1 truncation mutants used to capture His-XIAP purified from E. coli. Conditions: both partners purified.

T1 sequence (P19754 236-612): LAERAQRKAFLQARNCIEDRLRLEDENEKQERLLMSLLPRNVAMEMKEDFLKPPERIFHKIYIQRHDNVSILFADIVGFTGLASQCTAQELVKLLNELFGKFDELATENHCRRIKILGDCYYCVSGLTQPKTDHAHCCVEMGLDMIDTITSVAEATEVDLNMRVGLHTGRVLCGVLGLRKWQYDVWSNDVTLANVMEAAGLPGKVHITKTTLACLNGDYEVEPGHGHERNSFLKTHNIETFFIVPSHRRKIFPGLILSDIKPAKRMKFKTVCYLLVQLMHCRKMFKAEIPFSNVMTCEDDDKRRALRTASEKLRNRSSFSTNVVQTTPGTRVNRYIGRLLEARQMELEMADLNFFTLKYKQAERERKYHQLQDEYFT

B1: purified TRIP-Br1 (His-tagged at both N and C termini) (natural protein, human, UniProt Q9UHV2 1-236, looked up)
chain: MLSKGLKRKREEEEEKEPLAVDSWWLDPGHTAVAQAPPAVASSSLFDLSVLKLHHSLQQSEPDLRHLVLVVNTLRRIQASMAPAAALPPVPSPPAAPSVADNLLASSDAALSASMASLLEDLSHIEGLSQAPQPLADEGPPGRSIGGAAPSLGALDLLGPATGCLLDDGLEGLFEDIDTSMYDNELWAPASEGLKPGPEDGPGKEEAPELDEAELDYLMDVLVGTQALERPPGPGR
notes: TRIP-Br1 (SERTAD1), human, cDNA amplified from Calu-3 cells; The methods call it His-TRIP-Br1; the legends say His-tagged at both termini; also called His-TRIP-Br1; source: E. coli BL21 (codon plus), purified (Ni-NTA); not shown: His, N-terminal, kept; His, C-terminal, kept
On to B1, for which, in assay [1], the binding result is “binds”.

B2: GST-TRIP-Br1 fusion protein (full-length TRIP-Br1 fused with GST) (natural protein, human, UniProt Q9UHV2 1-236, looked up)
chain: B1 chain
notes: also called Sertad1; SEI-1; source: E. coli BL21 codon plus, purified (glutathione-Sepharose)
On to B2, for which the binding result in assay [2] was “binds”.
